Reference: publication PMC2955050
Non-standard residues stand in square brackets, D forms with d. No end group written: not given here. pY = N[C@@H](Cc1ccc(OP(=O)(O)O)cc1)C(=O)O

Biological target: recombinant DLAR catalytic domain (Drosophila)

Kcat/Km of dephosphorylation of the peptide by DLAR (malachite green phosphatase assay) [sec^-1M^-1]	Binder
300000	TAEPD[pY]GALYE [Cuticle peptide TAEPD(pY)GALYE]
143000	CDDS[pY]FGNKC (cysteine pairing not given here) [Myospheroid peptide CDDS(pY)FGNKC]
264000	TRDI[pY]ETDYYRK [Insulin receptor peptide TRDI(pY)ETDYYRK]
196000	VIGD[pY]VCRLCK (cysteine pairing not given here) [Nervous Fingers peptide VIGD(pY)VCRLCK]
180000	RDDT[pY]TAHAG [Abelson peptide RDDT(pY)TAHAG]
